Substrate in data set [1]: CCn1c(=NN=c2sc3cc(S(=O)(=O)O)ccc3n2CC)sc2cc(S(=O)(=O)O)ccc21
The data set can be described thus: peroxidase oxidation, spectrophotometric; nonlinear fit. Format: biochemical, Irpex lacteus. The note with it: pH 3, 25 °C, 50 mM sodium tartrate, co-substrate H2O2. The text has this:
(§1) peroxidase oxidation, spectrophotometric; nonlinear fit on IlDyP2

Substrate in data set [2]: COc1cccc(OC)c1O
The data set is described as above. The data set is classed as biochemical, Irpex lacteus. The following applies: pH 3, 25 °C, 50 mM sodium tartrate, co-substrate H2O2.
From the text: as §1

Substrate in the data set “purified protein”: COc1ccccc1O
Nature of the data set: purified protein. The following applies: 50 mM sodium tartrate.

Substrate in data set [3]: CCn1c(=NN=c2sc3cc(S(=O)(=O)O)ccc3n2CC)sc2cc(S(=O)(=O)O)ccc21
Nature of the data set: peroxidase oxidation, spectrophotometric; nonlinear fit. The data set is classed as biochemical, Irpex lacteus. The note with it: pH 4, 25 °C, 50 mM sodium tartrate, co-substrate H2O2. The text has this: (§2) peroxidase oxidation, spectrophotometric; nonlinear fit on IlDyP1

Substrate in data set [4]: COc1cccc(OC)c1O
The description is as above. The data set is classed as biochemical, Irpex lacteus. The following applies: pH 4, 25 °C, 50 mM sodium tartrate, co-substrate H2O2.
From the text: as §2

The mark [5] stands for this setting: pH 3, 25 °C, co-substrate H2O2, pH 3.0.
The mark [6] stands for this setting: pH 4, 25 °C, co-substrate H2O2, pH 4.0.

B1: IlDyP2 (Irpex lacteus) (protein)
chain: YHVKRARSSPLIGSFPGQPPLPTIAEVQSSSAGNDSLPFENIQGDILVGMKKDKEKFVFFHINNATTFKSFLKTYAPANITSVQTIIGPASGQPQAFVNLAFSHTGFGALGVADDLQDTAFTAGQFADAPSFGDDTSTWEEAFKGTNVDGVFLIGSDDVTTTNQYRDDLKAKLGDAWTVLLDLDSAARPGAEKGHEHFGYLDGISNPTIPGFGTPFPGQAVVDSGVIFAGRTNDPVTNRPSWALDGSFLVFRKLKQLVPEFHKWTLDNALQNQAGNLTVEEGALLLGSRMFGRWNSGAPIDLTPDVDDPTLGNDPQRNNDFNYIHPGEDLTTDETRCPFTAHVRKTNPRDLEAQGLIPDLFHAIRAGTPYGPEVTDAESNSNTTSIDRGLAFVEYQSVISNGFRFQQLNWANNANFPFNKSEPLGLDPVIGQGTRQTFGLDPRNASDSLTIPQIIISNGGEYFFSPSITALVEHFGA
Consider B1, for which, in data set [1], the Michaelis constant (Km) worked out at 125.0 ± 1.4 µM, the kcat was determined as 396 s⁻¹ and the kcat/Km amounted to 3.2e+06 M⁻¹ s⁻¹. For the same protein, in data set [2], the Km was 1631.7 ± 10.9 µM, the kcat is 561 ± 19.3 s⁻¹ and the specificity constant (kcat/Km) turned out to be 340000 ± 20000 M⁻¹ s⁻¹. In addition, in “purified protein” (setting [5]), the Michaelis constant (Km) was 229.1 ± 15.9 µM, the kcat stood at 49.7 s⁻¹ and the specificity constant (kcat/Km) was 220000 M⁻¹ s⁻¹.

B2: IlDyP1 (Irpex lacteus) (protein)
chain: YHVKRARTTSLLGSFPGQGALPTVAQVQSTSSGNDSLPLENIQGDILVGMKKQKEQFVFFHINNATTFKKVLKTYAPANITSIQTLLSAPSAQPLAFVNLAFSQSGATALGVTDDLGDSFFSAGQFADASALGDDTSNWDSTFTGTDVHGVFLIGSDETSFVEQYQSDLEAKLGDAWTVSLTIASAARPGDEAGHEHFGYLDGISNPTITGFGTALPGQSVVDPGIILAGRTGDTVSRPSWALDGSFLVFRKLKQLVPEFNKWTLANAIQNASGNLTAQEGADLLGSRMFGRWKSGAPIDLSPDVDDASLGTDPQRNNNFNYTHAGSDITSDESRCPFSAHIRKTNPRDLESVIGHANHAIRAGTPYGPELTDDESSSGTTSTDRGLAFVEYQSNIGNGFRTQQEVWANAAAFPFGKTESIGLDPVIGQGDRTTYGLNAQNVTESYSVPSFVISNGGEYFFSPSITALVETFAA
With B2, in the data set “purified protein” (setting [6]), the Michaelis-Menten constant (Km) was determined as 592.1 ± 53.0 µM, the turnover number (kcat) came out at 49.2 s⁻¹ and the kcat/Km was 83000 M⁻¹ s⁻¹. Further, in data set [3], the Michaelis-Menten constant (Km) was determined as 693.1 ± 8.5 µM, the catalytic constant (kcat) turned out to be 356 ± 11.2 s⁻¹ and the kcat/Km is 510000 ± 10000 M⁻¹ s⁻¹. In data set [4], the Km stood at 892.7 ± 81.5 µM, the kcat amounted to 199 ± 12.6 s⁻¹ and the kcat/Km amounted to 220000 ± 10000 M⁻¹ s⁻¹.

One may read the Km as the substrate concentration at which the rate is half of its maximum. The kcat is the number of substrate molecules converted per active site and unit of time at saturation. Broadly, the kcat/Km is the turnover number divided by the Michaelis constant.

These data come from publication PMC6223037, “Dye-decolorizing peroxidases in Irpex lacteus combining the catalytic properties of heme peroxidases and laccase play important roles in ligninolytic system” (Biotechnology for Biofuels, 2018).
